Source: US20080085859A1, “Drug Promoting Ceramide Transport, Base Sequence for Producing the Drug, Method of Measuring Activity of Promoting Ceramide Release and Method of Measuring Activity of Promoting Intermembrane Ceramide Transfer” (JAPAN SCIENCE AND TECHNOLOGY AGENCY, priority 2003, published 2008)

Columns and labels:
[1] = activity for promoting ceramide intermembrane transfer (donating/receiving membrane, castor seed lectin); assay type: biochemical
Source text: Subsequently, as described in detail below, whether or not hCERT protein and recombinant protein promotes the transfer between ceramide lipid membrane was considered, the purified hCERT protein and its recombinant protein were used in this assay were used. The present method was constructed on the basis of the principle of method of measuring the activity for promoting the intermembrane transfer of phosphatidylinositol by phosphatidylinositol transfer protein already reported by Kasper et al (Biochim. Biophys. Acta 664, 22-32, 1981) so that it becomes a new method of measuring the activity for promoting the ceramide intermembrane transfer. For the purpose of measuring the activity for promoting the intermembrane transfer, a donating membrane in which radioactive ceramide has been contained and a receiving membrane not containing ceramide were prepared. For the purpose of separating the lipid membrane, lactocylceramide was contained in the donating membrane. After the donating membrane and receiving membrane have been incubated with the protein sample to be targeted, castor seed lectin was added. Ceramide intermembrane-transferred can be quantified by measuring the radioactive activity of receptor membrane which has not been precipitated by a low speed centrifugation. […]

SM synthase = SM synthase activity, C6-NBD-Cer substrate, membrane fractions; assay type: biochemical, Chinese hamster; conditions: LY-A2/hCERT versus LY-A2 and CHO-K1 cells, FIG. 5
Experimental: The assay of SM synthase activity was carried out using C6—NBD-Cer as a substrate by a method of Hanada et al (Biochim. Biophys. Acta 1086, 151-156, 1991). However, the membrane fractions prepared respectively from CHO-K1 cell, LY-A2 cell and LY-A2/hCERT cell were used as an enzyme source.

LY-A2 cell = assay: cell labeling using C5-DMB-Cer and fluorescence microscopy (ER to Golgi apparatus); assay type: cell-based, Chinese hamster; conditions: C5-DMB-Cer, traced at 33° C. 15 minutes, LY-A2/hCERT, FIG. 6
Experimental: The present inventors have already made it clear that the activity of ATP dependent transport from the endoplasmic reticulum of natural ceramide (hereinafter, also referred to as ER) to Golgi apparatus can be qualitatively evaluated from the analysis of reallocation from ER of C5-DMB-Cer which is a fluorescent ceramide analogue to Golgi apparatus (J. Cell Biol. 144,673-685, 1999). As described in detail, the cell was exposed to C5-DMB-Cer at 4° C. for 30 minutes for the purpose of performing the pulse labeling of a variety of organelle membranes within a cell containing ER, after washing, it was traced at 33° C. for 15 minutes by a fluorescene microscopy observation method. A method of performing cell labeling using C5-DMB-Cer and a method of performing an observation by a fluorescence microscopy were carried out by a method of Yasuda et al (J. Biol. Chem. 276, 43994-44002, 2001) and a method of Fukasawa et al (J. Cell Biol. 144, 673-685, 1999). Specifically, after CHO-K1 cell, LY-A2 cell and LY-A2/hCERT cell grown on a coverslip made of glass were treated at 4° C. for 30 minutes in F12 medium containing 1 micro-M C5-DMB-Cer, it was washed three times in 1 mL of F12 medium. […] The sample was observed under the fluorescence microscopy immediately after it has been fixed and photographed with a digital CCD camera.

B1: hCERT protein: human CERT protein having an amino acid sequence of SEQ ID NO:1 (protein)
chain: MSDNQSWNSSGSEEDPETESGPPVERCGVLSKWTNYIHGWQDRWVVLKNNALSYYKSEDETEYGCRGSICLSKAVITPHDFDECRFDISVNDSVWYLRAQDPDHRQQWIDAIEQHKTESGYGSESSLRRHGSMVSLVSGASGYSATSTSSFKKGHSLREKLAEMETFRDILCRQVDTLQKYFDACADAVSKDELQRDKVVEDDEDDFPTTRSDGDFLHSTNGNKEKLFPHVTPKGINGIDFKGEAITFKATTAGILATLSHCIELMVKREDSWQKRLDKETEKKRRTEEAYKNAMTELKKKSHFGGPDYEEGPNSLINEEEFFDAVEAALDRQDKIEEQSQSEKVRLHWPTSLPSGDAFSSVGTHRFVQKVEEMVQNHMTYSLQDVGGDANWQLVVEEGEMKVYRREVEENGIVLDPLKATHAVKGVTGHEVCNYFWNVDVRNDWETTIENFHVVETLADNAIIIYQTHKRVWPASQRDVLYLSVIRKIPALTENDPETWIVCNFSVDHDSAPLNNRCVRAKINVAMICQTLVSPPEGNQEISRDNILCKITYVANVNPGGWAPASVLRAVAKREYPKFLKRFTSYVQEKTAGKPILF
modifications: HeLa cell
[1]; 37° C., 14C of supernatant and donating membrane, FIGS. 17, 18
  activity for promoting ceramide intermembrane transfer: detected depending on the amount of hCERT, the length of incubation time and incubation temperature
[1]; for 10 minutes
  ceramide transferred to the receiving membrane vesicle: ~50%
SM synthase
  activity of the SM synthase: no difference
LY-A2 cell
  accumulation of DMB fluorescence to Golgi apparatus region: accumulation comparable to CHO-K1 cell
